{"source": "the supplement of paper PMC5998384", "key": {"HeLa Kyoto [1]": {"test_system": "HeLa Kyoto", "assay": "solubility in G1/S (NP-40 vs SDS abundance) (log2 ratio); higher = more soluble", "details": "cell cycle stage: G1/S"}, "HeLa Kyoto [2]": {"test_system": "HeLa Kyoto", "assay": "melting temperature (median over replicates), in situ; higher = more thermally stable"}, "HeLa Kyoto [3]": {"test_system": "HeLa Kyoto", "assay": "solubility change mitosis vs G1/S (difference of NP-40 vs SDS log2 ratios) (log2 ratio difference); higher = more soluble in mitosis"}, "HeLa Kyoto [4]": {"test_system": "HeLa Kyoto", "assay": "thermal stability score vs G1/S (z-score of summed log2 fold changes over temperatures); higher = more thermally stable than in G1/S"}, "[5]": {"details": "cell cycle stage: early G1 (4.5 h after nocodazole release)"}}}
{"sequence": "MAQTVQNVTLSLTLPITCHICLGKVRQPVICINNHVFCSICIDLWLKNNSQCPACRVPITPENPCKEIIGGTSESEPMLSHTVRKHLRKTRLELLHKEYEDEIDCLQKEVEELKSKNLSLESQIKTILDPLTLVQGNQNEDKHLVTDNPSKINPETVAEWKKKLRTANEIYEKVKDDVDKLKEANKKLKLENGGLVRENLRLKAEVDNRSPQKFGRFAVAALQSKVEQYERETNRLKKALERSDKYIEELESQVAQLKNSSEEKEAMNSICQTALSADGKGSKGSEEDVVSKNQGDSARKQPGSSTSSSSHLAKPSSSRLCDTSSARQESTSKADLNCSKNKDLYQEQVEVMLDVTDTSMDTYLEREWGNKPSDCVPYKDEELYDLPAPCTPLSLSCLQLSTPENRESSVVQAGGSKKHSNHLRKLVFDDFCDSSNVSNKDSSEDDISRSENEKKSECFSSPKTGFWDCCSTSYAQNLDFESSEGNTIANSVGEISSKLSEKSGLCLSKRLNSIRSFEMNRTRTSSEASMDAAYLDKISELDSMMSESDNSKSPCNNGFKSLDLDGLSKSSQGSEFLEEPDKLEEKTELNLSKGSLTNDQLENGSEWKPTSFFLLSPSDQEMNEDFSLHSSSCPVTNEIKPPSCLFQTEFSQGILLSSSHRLFEDQRFGSSLFKMSSEMHSLHNHLQSPWSTSFVPEKRNKNVNQSTKRKIQSSLSSASPSKATKS [RNF219]", "values": [{"measurement": "solubility in G1/S (log2)", "setting": "HeLa Kyoto [1]", "value": -0.0524}, {"measurement": "melting temperature", "setting": "HeLa Kyoto [2]; cell cycle stage: G1/S", "value": 46.5, "unit": "°C"}, {"measurement": "melting temperature", "setting": "HeLa Kyoto [2]; cell cycle stage: mitosis", "value": 49.3, "unit": "°C"}, {"measurement": "solubility change mitosis (log2)", "setting": "HeLa Kyoto [3]", "value": -0.0524}, {"measurement": "thermal stability score", "setting": "HeLa Kyoto [4]; [5]", "value": 0.213}, {"measurement": "thermal stability score", "setting": "HeLa Kyoto [4]; cell cycle stage: mitosis", "value": 2.43}]}
{"sequence": "MAQYKGAASEAGRAMHLMKKREKQREQMEQMKQRIAEENIMKSNIDKKFSAHYDAVEAELKSSTVGLVTLNDMKAKQEALVKEREKQLAKKEQSKELQMKLEKLREKERKKEAKRKISSLSFTLEEEEEGGEEEEEAAMYEEEMEREEITTKKRKLGKNPDVDTSFLPDRDREEEENRLREELRQEWEAKQEKIKSEEIEITFSYWDGSGHRRTVKMRKGNTMQQFLQKALEILRKDFSELRSAGVEQLMYIKEDLIIPHHHSFYDFIVTKARGKSGPLFNFDVHDDVRLLSDATVEKDESHAGKVVLRSWYEKNKHIFPASRWEPYDPEKKWDKYTIR [FAM50A]", "values": [{"measurement": "solubility in G1/S (log2)", "setting": "HeLa Kyoto [1]", "value": 0.0519}, {"measurement": "melting temperature", "setting": "HeLa Kyoto [2]; cell cycle stage: G1/S", "value": 48.4, "unit": "°C"}, {"measurement": "melting temperature", "setting": "HeLa Kyoto [2]; cell cycle stage: mitosis", "value": 50.3, "unit": "°C"}, {"measurement": "solubility change mitosis (log2)", "setting": "HeLa Kyoto [3]", "value": -0.0697}, {"measurement": "thermal stability score", "setting": "HeLa Kyoto [4]; [5]", "value": 1.03}, {"measurement": "thermal stability score", "setting": "HeLa Kyoto [4]; cell cycle stage: mitosis", "value": 2.04}]}
{"sequence": "MARCERLRGAALRDVLGRAQGVLFDCDGVLWNGERAVPGAPELLERLARAGKAALFVSNNSRRARPELALRFARLGFGGLRAEQLFSSALCAARLLRQRLPGPPDAPGAVFVLGGEGLRAELRAAGLRLAGDPSAGDGAAPRVRAVLVGYDEHFSFAKLREACAHLRDPECLLVATDRDPWHPLSDGSRTPGTGSLAAAVETASGRQALVVGKPSPYMFECITENFSIDPARTLMVGDRLETDILFGHRCGMTTVLTLTGVSRLEEAQAYLAAGQHDLVPHYYVESIADLTEGLED [PDXP]", "values": [{"measurement": "solubility in G1/S (log2)", "setting": "HeLa Kyoto [1]", "value": 0.126}, {"measurement": "melting temperature", "setting": "HeLa Kyoto [2]; cell cycle stage: G1/S", "value": 56.7, "unit": "°C"}, {"measurement": "melting temperature", "setting": "HeLa Kyoto [2]; cell cycle stage: mitosis", "value": 57.5, "unit": "°C"}, {"measurement": "solubility change mitosis (log2)", "setting": "HeLa Kyoto [3]", "value": -0.126}, {"measurement": "thermal stability score", "setting": "HeLa Kyoto [4]; [5]", "value": -2.14}, {"measurement": "thermal stability score", "setting": "HeLa Kyoto [4]; cell cycle stage: mitosis", "value": -1.83}]}
{"sequence": "MARGERRRRAVPAEGVRTAERAARGGPGRRDGRGGGPRSTAGGVALAVVVLSLALGMSGRWVLAWYRARRAVTLHSAPPVLPADSSSPAVAPDLFWGTYRPHVYFGMKTRSPKPLLTGLMWAQQGTTPGTPKLRHTCEQGDGVGPYGWEFHDGLSFGRQHIQDGALRLTTEFVKRPGGQHGGDWSWRVTVEPQDSGTSALPLVSLFFYVVTDGKEVLLPEVGAKGQLKFISGHTSELGDFRFTLLPPTSPGDTAPKYGSYNVFWTSNPGLPLLTEMVKSRLNSWFQHRPPGAPPERYLGLPGSLKWEDRGPSGQGQGQFLIQQVTLKIPISIEFVFESGSAQAGGNQALPRLAGSLLTQALESHAEGFRERFEKTFQLKEKGLSSGEQVLGQAALSGLLGGIGYFYGQGLVLPDIGVEGSEQKVDPALFPPVPLFTAVPSRSFFPRGFLWDEGFHQLVVQRWDPSLTREALGHWLGLLNADGWIGREQILGDEARARVPPEFLVQRAVHANPPTLLLPVAHMLEVGDPDDLAFLRKALPRLHAWFSWLHQSQAGPLPLSYRWRGRDPALPTLLNPKTLPSGLDDYPRASHPSVTERHLDLRCWVALGARVLTRLAEHLGEAEVAAELGPLAASLEAAESLDELHWAPELGVFADFGNHTKAVQLKPRPPQGLVRVVGRPQPQLQYVDALGYVSLFPLLLRLLDPTSSRLGPLLDILADSRHLWSPFGLRSLAASSSFYGQRNSEHDPPYWRGAVWLNVNYLALGALHHYGHLEGPHQARAAKLHGELRANVVGNVWRQYQATGFLWEQYSDRDGRGMGCRPFHGWTSLVLLAMAEDY [MOGS]", "values": [{"measurement": "solubility in G1/S (log2)", "setting": "HeLa Kyoto [1]", "value": -0.0875}, {"measurement": "melting temperature", "setting": "HeLa Kyoto [2]; cell cycle stage: G1/S", "value": 52.9, "unit": "°C"}, {"measurement": "melting temperature", "setting": "HeLa Kyoto [2]; cell cycle stage: mitosis", "value": 52.8, "unit": "°C"}, {"measurement": "solubility change mitosis (log2)", "setting": "HeLa Kyoto [3]", "value": -0.0215}, {"measurement": "thermal stability score", "setting": "HeLa Kyoto [4]; [5]", "value": 3.25}, {"measurement": "thermal stability score", "setting": "HeLa Kyoto [4]; cell cycle stage: mitosis", "value": 3.97}]}
